From patent US20160083711 come the findings set out here.

The target of this data set is T1, fluorogenic peptide (MCA)Lys-Lys-Pro-Ala-Glu-Phe-Phe-Ala-Leu-Lys(DNP).
T1 chain: KKPAEFFALK

B1: proCardosinB lacking the PSI region (pCBΔPSI) (protein)
chain: MVSNGGLLRVGLKKRKVDRLDQLRAHGVHMLGNARKDFGFRRTLRDSGSGIVALTNDRDTAYYGEIGIGTPPQNFAVIFDTGSSDLWVPSTKCDTSLACVIHPRYDSGDSSTYKGNGTTASIQYGTGAIVGFYSQDSVEVGDLVVEHQDFIETTEEDDTVFLKSEFDGILGLGFQEISAGKAVPVWYNMVNQGLVEEAVFSFWLNRNVDEEEGGELVFGGVDPNHFRGNHTYVPVTRKGYWQFEMGDVLIGDKSSGFCAGGCAAIADSGTSFFAGPTAIITQINQAIGAKGGGGSAESIVDCNGISSMPNIAFTIGSKLFEVTPEQYIYKVGEGEAATCISGFTALDIMSPQGPIWILGDMFMGPYHTVFDYGKLRVGFAEAV
A word on the Km: it is the concentration of substrate that gives half-maximal velocity. A word on the kcat: it is the number of substrate molecules converted per active site and unit of time at saturation. In general, kcat/Km refers to the turnover number divided by the Michaelis constant. As to B1, the Km is 8.7 µM, the VMax turned out to be 2.15e-05 µmol/s, the kcat was found to be 36.5 s⁻¹ and the kcat/Km is 4.2e+06 M⁻¹ s⁻¹.
